Assay results: US20130331317A1 (NEW YORK UNIVERSITY, published 2013)

Legend:
[1] = molecular target: binary complex of FGFR1c ligand-binding domain with murine αKlotho ectodomain (murine;human) (UniProt O35082); assay: SPR
[2] = molecular target: T1, ligand-binding domain of human FGFR1c (D142 to R365) (human, UniProt P11362 142-365); assay: SPR; increasing concentrations of FGFR1c ligand-binding domain passed over immobilised FGF21
T1 construct: range 142-365
T1 sequence (looked up): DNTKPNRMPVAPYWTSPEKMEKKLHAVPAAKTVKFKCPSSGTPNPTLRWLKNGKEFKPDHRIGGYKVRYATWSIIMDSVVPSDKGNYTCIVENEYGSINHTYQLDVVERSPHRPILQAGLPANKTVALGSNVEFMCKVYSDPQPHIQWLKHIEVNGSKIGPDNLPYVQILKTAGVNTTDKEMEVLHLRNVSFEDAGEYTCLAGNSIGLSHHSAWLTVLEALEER
From the text: (§1) FIGS. 10A-10D show overlays of SPR sensorgrams illustrating binding of FGFR1c to FGF2 (FIG. 10A), FGF19 (FIG. 10B), FGF21 (FIG. 10C), and FGF23 (FIG. 10D), and fitted saturation binding curves. Increasing concentrations of FGFR1c ligand-binding domain were passed over a biosensor chip containing immobilized FGF2, FGF19, FGF21, or FGF23. […] Increasing concentrations of αKlotho-FGFR1c complex were passed over a biosensor chip containing immobilized FGF23. […] FGF23^C-tail was immobilized on a biosensor chip and increasing concentrations of FGFR1c ligand-binding domain were passed over the chip. Dissociation constants (KDs) given in FIGS. 10A-10E were derived from the saturation binding curves.
(§2) Surface plasmon resonance (SPR) experiments were performed on a Biacore 2000 instrument (Biacore AB), and the interactions were studied at 25° C. in HBS-EP buffer (10 mM HEPES-NaOH, pH 7.4, 150 mM NaCl, 3 mM EDTA, 0.005% (v/v) polysorbate 20). To study endocrine FGF-heparin interactions, a heparin chip was prepared by immobilizing biotinylated heparin (Sigma-Aldrich) on flow channels of a research-grade streptavidin chip (Biacore AB). The coupling density was ˜5 fmol mm⁻² of flow channel. To measure binding of chimeric FGF2 proteins to heparin, biotinylated heparin was coupled to a streptavidin chip at an approximately 4-fold lower density as judged based on the binding responses obtained for FGF1. […]

[3] = molecular target: T2, binary complex of FGFR1c ligand-binding domain with murine βKlotho ectodomain (murine; human, UniProt P11362 142-365); assay: SPR competition; FGF21 in solution mixed with βKlotho-FGFR1c complex, passed over immobilised FGF21
T2 construct: range 142-365; also called βKlotho-FGFR1c complex; βKlotho-FGFR1c; not shown: C-terminal FLAG tag
T2 sequence 1: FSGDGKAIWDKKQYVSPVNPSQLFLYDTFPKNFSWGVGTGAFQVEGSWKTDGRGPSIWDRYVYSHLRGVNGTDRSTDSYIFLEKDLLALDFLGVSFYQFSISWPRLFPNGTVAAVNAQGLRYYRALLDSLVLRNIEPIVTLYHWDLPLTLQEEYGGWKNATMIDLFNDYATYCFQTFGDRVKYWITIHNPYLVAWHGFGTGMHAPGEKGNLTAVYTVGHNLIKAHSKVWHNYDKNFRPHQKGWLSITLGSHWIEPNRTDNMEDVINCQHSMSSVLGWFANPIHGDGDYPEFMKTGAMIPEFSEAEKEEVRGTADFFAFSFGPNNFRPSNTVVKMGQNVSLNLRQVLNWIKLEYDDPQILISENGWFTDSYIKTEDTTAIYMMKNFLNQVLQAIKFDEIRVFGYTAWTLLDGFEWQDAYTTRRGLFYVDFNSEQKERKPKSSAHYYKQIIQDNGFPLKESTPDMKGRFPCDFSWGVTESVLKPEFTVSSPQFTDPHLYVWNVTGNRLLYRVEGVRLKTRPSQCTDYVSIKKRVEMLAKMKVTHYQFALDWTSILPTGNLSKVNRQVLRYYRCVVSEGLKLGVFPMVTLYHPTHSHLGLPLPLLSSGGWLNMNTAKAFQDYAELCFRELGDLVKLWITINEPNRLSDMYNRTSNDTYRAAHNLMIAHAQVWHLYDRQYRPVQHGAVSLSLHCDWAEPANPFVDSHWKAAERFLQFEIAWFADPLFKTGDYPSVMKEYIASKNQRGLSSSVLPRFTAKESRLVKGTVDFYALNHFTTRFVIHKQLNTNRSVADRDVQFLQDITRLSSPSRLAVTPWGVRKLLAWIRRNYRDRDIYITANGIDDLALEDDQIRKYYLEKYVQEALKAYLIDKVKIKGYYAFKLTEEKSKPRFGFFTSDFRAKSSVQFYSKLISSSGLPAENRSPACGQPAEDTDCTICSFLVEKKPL
T2 sequence 2: T1 sequence (looked up)
From the text: To this end, a SPR-based binding competition assay was employed. FGF23 was immobilized onto a SPR biosensor chip, and mixtures of a fixed concentration of binary αKlotho-FGFR1c complex with increasing concentrations of FGF2^ΔHBScore-FGF23^C-tail chimera were passed over the chip. […] To test whether the FGF2^ΔHBScore-FGF21^C-tail chimera can likewise form a ternary complex with FGFR1c and βKlotho, FGF21 was coupled to a SPR biosensor chip, and mixtures of the binary βKlotho-FGFR1c complex with FGF2^ΔHBScore-FGF21^C-tail were passed over the chip. […] To further confirm the binding specificity of the FGF2^ΔHBScore-FGF23^C-tail chimera for the αKlotho-FGFR1c complex, FGF2^ΔHBScore-FGF23^C-tail and βKlotho-FGFR1c complex were mixed at a molar ratio of 10:1, and the mixture was injected over a chip containing immobilized FGF21. […] For the FGF2^ΔHBScore-FGF21^C-tail chimera, we investigated whether it is able to activate FGFR1c in a βKlotho-dependent fashion in cells. HEK293 cells were transfected with βKlotho and then stimulated with FGF2^ΔHBScore-FGF21^C-tail or FGF21.

[4] = molecular target: T3, ligand-binding domain of human FGFR1c (D142 to R365) (human, UniProt P11362 142-365); assay: SPR
T3 chain: T1 sequence (looked up)

[5] = molecular target: T4, binary complex of FGFR1c ligand-binding domain with murine αKlotho ectodomain (murine; human, UniProt O35082 35-982; P11362 142-365); assay: SPR; FGFR1c ligand-binding domain or αKlotho-FGFR1c complex passed over immobilised FGF23 (FIGS. 10D and 10E)
T4 construct: range 35-982;range 142-365; αKlotho ectodomain was expressed in HEK293 cells; also called αKlotho-FGFR1c complex; αKlotho-FGFR1c; not shown: C-terminal FLAG tag
T4 sequence (looked up) 1: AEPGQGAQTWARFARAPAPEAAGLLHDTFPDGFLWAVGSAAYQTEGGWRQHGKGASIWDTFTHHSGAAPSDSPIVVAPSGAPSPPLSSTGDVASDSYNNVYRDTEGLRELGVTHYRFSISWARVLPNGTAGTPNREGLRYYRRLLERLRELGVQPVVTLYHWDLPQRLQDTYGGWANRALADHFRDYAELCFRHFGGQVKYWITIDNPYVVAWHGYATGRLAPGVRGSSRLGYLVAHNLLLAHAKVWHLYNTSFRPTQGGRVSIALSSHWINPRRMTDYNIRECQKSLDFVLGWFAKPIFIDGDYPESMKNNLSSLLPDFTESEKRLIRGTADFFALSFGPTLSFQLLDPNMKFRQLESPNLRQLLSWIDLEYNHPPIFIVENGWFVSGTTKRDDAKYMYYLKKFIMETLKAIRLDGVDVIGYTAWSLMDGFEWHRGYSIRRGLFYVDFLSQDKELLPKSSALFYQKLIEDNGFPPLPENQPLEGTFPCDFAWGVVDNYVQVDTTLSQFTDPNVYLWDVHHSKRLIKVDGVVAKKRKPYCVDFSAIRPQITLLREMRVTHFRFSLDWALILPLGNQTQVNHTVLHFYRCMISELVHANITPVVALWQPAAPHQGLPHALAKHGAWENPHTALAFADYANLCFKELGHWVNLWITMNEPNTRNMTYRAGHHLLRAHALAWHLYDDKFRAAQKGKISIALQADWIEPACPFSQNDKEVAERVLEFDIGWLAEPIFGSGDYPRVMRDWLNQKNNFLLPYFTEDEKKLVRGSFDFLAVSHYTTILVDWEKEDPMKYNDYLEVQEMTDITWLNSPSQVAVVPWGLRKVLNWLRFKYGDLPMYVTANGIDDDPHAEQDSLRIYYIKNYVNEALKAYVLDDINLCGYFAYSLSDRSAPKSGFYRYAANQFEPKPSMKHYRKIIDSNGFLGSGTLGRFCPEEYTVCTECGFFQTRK
T4 sequence (looked up) 2: T1 sequence (looked up)
From the text: as §1, §2

[6] = molecular target: T1, ligand-binding domain of human FGFR1c …; assay: SPR; increasing concentrations of FGFR1c ligand-binding domain passed over immobilised FGF23
From the text: as §1, §2

[7] = molecular target: T1, ligand-binding domain of human FGFR1c …; assay: SPR; FGF23^C-tail immobilised on the chip, increasing concentrations of FGFR1c ligand-binding domain passed over it
From the text: as §1, §2

Q: With “human FGF23 (Y25 to I251), N-terminally hexahistidine-tagged mature form, with R176Q/R179Q (from UniProt Q9GZV9 25-251)” as the molecule, how does the Kd [1] read?
A: Its Kd is 27.4 nM.

B1: human FGF21 (H29 to S209), N-terminally hexahistidine-tagged mature form (ligand)
chain: HPIPDSSPLLQFGGQVRQRYLYTDDAQQTEAHLEIREDGTVGGAADQSPESLLQLKALKPGVIQILGVKTSRFLCQRPDGALYGSLHFDPEACSFRELLLEDGYNVYQSEAHGLPLHLPGNKSPHRDPAPRGPARFLPLPGLPPALPEPPGILAPQPPDVGSSDPLSMVGPSQGRSPSYAS
notes: also called native FGF21; not shown: N-terminal hexahistidine tag
Q: Does B1 bind [2]?
A: Result: binds

Q: Does B1 bind [3]?
A: Result: binds

Q: And the Kd [4]?
A: Its Kd is 2520 nM.

B2: human FGF23 (Y25 to I251), N-terminally hexahistidine-tagged mature form, with R176Q/R179Q (ligand)
chain: YPNASPLLGSSWGGLIHLYTATARNSYHLQIHKNGHVDGAPHQTIYSALMIRSEDAGFVVITGVMSRRYLCMDFRGNIFGSHYFDPENCRFQHQTLENGYDVYHSPQYHFLVSLGRAKRAFLPGMNPPPYSQFLSRRNEIPLIHFNTPIPRQHTQSAEDDSERDPLNVLKPRARMTPAPASCSQELPSAEDNSPMASDPLGVVRGGRVNTHAGGTGPEGCRPFAKFI
notes: also called native FGF23; wild-type FGF23; not shown: N-terminal hexahistidine tag
Q: What does the source list for B2?
A: fold enhancement of affinity (αKlotho-FGFR1c complex against FGFR1c alone) [5]: > 20 fold; binding result [6]: binds; Kd [4]: 648 nM

B3: N-terminally hexahistidine-tagged C-terminal tail peptide of FGF23 (S180 to I251) (peptide)
peptide: SAEDDSERDPLNVLKPRARMTPAPASCSQELPSAEDNSPMASDPLGVVRGGRVNTHAGGTGPEGCRPFAKFI
notes: also called FGF23^C-tail; not shown: N-terminal hexahistidine tag
Q: Does B3 bind [7]?
A: Result: no binding
